Assay [1] deals with T1, mouse OX40 protein expressed on the surface of 293T cells (mouse, UniProt P47741 20-272).
T1 construct: whole, on cells
T1 sequence (looked up): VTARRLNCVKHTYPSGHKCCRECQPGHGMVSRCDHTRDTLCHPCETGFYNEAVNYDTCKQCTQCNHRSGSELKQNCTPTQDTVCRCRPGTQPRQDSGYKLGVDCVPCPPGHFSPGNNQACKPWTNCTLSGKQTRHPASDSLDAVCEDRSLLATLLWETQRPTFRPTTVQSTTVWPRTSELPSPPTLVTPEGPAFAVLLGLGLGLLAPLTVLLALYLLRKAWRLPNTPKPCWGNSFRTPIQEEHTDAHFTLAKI
The assay is described as follows: flow cytometry on 293T cells transiently transfected with mouse OX40, goat anti-human IgG PE, MFI.
Procedure: (§1) Then, after washing twice with PBS, the cells were incubated with the secondary goat anti-human IgG PE antibody (1:200; Abcam, Cat. ab98596) at room temperature for 30 minutes.

The target in assay [2] is T2, cynomolgus monkey OX40 protein expressed on the surface of cells (cynomolgus monkey).
T2 construct: whole, on cells; On transiently transfected 293T cells
The assay is described as follows: flow cytometry (MFI) on 293T cells expressing cynomolgus monkey OX40. A general note: In flow cytometry, cells or beads pass a laser one at a time.

For assay [3], the target named is T3, human OX40 protein expressed on the surface of cells (human, UniProt P43489 29-277).
T3 construct: also called hOX40
T3 sequence: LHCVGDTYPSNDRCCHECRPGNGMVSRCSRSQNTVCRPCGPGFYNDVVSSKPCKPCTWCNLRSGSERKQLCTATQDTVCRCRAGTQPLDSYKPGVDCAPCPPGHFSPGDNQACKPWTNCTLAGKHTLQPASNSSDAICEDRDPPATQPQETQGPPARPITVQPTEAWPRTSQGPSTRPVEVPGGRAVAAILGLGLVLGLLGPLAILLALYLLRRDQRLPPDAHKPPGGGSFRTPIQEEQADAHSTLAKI
The experiment in a line: flow cytometry (MFI) on CD3/CD28-activated primary human CD4+CD3+ T cells, second donor.
Procedure: Activation of human T cells were evaluated using CD3⁺ T cells isolated from two human donors' peripheral blood mononuclear cells (hPBMCs) pre-activated using CD3/CD28 Dynabeads.

Assay [4] has as its target T4, recombinant human OX40-mFc protein (human, UniProt P43489 29-214).
T4 construct: Recombinant dimer (mFc-tagged); also called hOX40.mFc; recombinant human OX40 protein; not shown: mFc tag
T4 sequence: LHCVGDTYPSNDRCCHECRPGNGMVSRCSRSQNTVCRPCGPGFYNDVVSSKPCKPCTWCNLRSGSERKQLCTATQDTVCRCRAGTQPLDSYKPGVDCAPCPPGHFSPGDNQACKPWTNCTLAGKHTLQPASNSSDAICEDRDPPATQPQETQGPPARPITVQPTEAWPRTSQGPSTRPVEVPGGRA
The experiment in a line: BLI (Octet QKe), antibody on anti-human Fc sensor, OX40-mFc in solution, 25 C, pH 7.4, 1:1 model; Experiment B. On the technique in general: In BLI a coated tip is dipped into the sample, and binding shifts an interference pattern.

For assay [5], the target named is T2, cynomolgus monkey OX40 protein …. The experiment in a line: flow cytometry (MFI) on activated primary monkey T cells, donor M20Z025008.
Assay [6] has the same target. The assay is described as follows: flow cytometry (MFI) on transfected 293T cells.
Assay [7] addresses T3, human OX40 protein expressed on the …. The assay is described as follows: flow cytometry (MFI) on transfected 293T cells.
Assay [8] concerns the target T2, cynomolgus monkey OX40 protein …. The assay is described as follows: flow cytometry (MFI) on activated primary monkey T cells, donor Lot #200107.
Assay [9] concerns the target T3, human OX40 protein expressed on the …. The experiment in a line: flow cytometry (MFI) on 293T cells expressing human OX40.
Assay [10] has as its target T5, biotinylated OX40 recombinant protein (UniProt P43489 29-216, limits assumed, biotinylated).
T5 construct: also called OX40 protein; Biotin-OX40
T5 sequence (looked up): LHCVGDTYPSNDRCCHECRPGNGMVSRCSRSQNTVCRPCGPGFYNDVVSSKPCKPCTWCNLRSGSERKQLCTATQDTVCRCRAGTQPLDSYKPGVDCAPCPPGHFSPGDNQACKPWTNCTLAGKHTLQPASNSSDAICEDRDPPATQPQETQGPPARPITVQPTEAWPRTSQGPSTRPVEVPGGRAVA
The experiment in a line: ELISA, plate coated with the antibody, biotinylated OX40 recombinant protein titrated (x axis = its concentration in nM), OD 450nm. For orientation: An ELISA detects its analyte on a solid surface through an enzyme-linked reagent.
Procedure: The next day, the plate was blocked with 1% BSA (Sangon Biotech, catalog number A600332-0100) in PBST at 37° C. for 2 hours, and then a defined concentration of biotinylated OX40 recombinant protein was added.

The target in assay [11] is T6, human CD40 protein expressed on the surface of 293T cells (human, UniProt P25942 21-277).
T6 construct: whole, on cells
The experiment in a line: flow cytometry on 293T cells transiently transfected with human CD40 (293T-hCD40), goat anti-human IgG PE, MFI.
Procedure: as §1

The target of assay [12] is T3, human OX40 protein expressed on the …. The assay is described as follows: cell-based or functional assay.
For assay [13] the target is unchanged. The experiment in a line: flow cytometry (MFI) on CD3/CD28-activated primary human CD4+CD3+ T cells, first donor.
Assay [14] concerns the target T2, cynomolgus monkey OX40 protein …. The assay is described as follows: flow cytometry (MFI) on activated primary monkey T cells, donor M20Z013009.
Assay [15] concerns the target T4, recombinant human OX40-mFc protein. The experiment in a line: BLI (Octet QKe), antibody on anti-human Fc sensor, OX40-mFc in solution, 25 C, pH 7.4, 1:1 model; Experiment A.
Procedure: The changes of binding signal were recorded, and the kinetic analysis of binding parameters were determined using the Model: 1:1 with the mass transfer limitation. The running buffer solution was prepared with PBS, pH 7.4, containing 0.1% BSA and 0.1% Tween 20. Prior to the kinetic binding experiment, the anti-human Fe capture sensor was rinsed with the running buffer, and the instrument was prewarmed to 25° C. […] The binding of OX40 protein and its antibodies was performed in duplicate with the running buffer at pH 7.4 and 25° C. In short, first, the anti-human Fc capture sensor was immersed in the running buffer for 300 seconds to set the first baseline. The sensor was then mixed with 200 nM test antibody solution for 600 seconds to load the antibody. The sensor was again immersed in the running buffer for 300 seconds to set the second baseline, and then associated with various concentrations of OX40 antigen for 900 seconds. Then dissociation was performed by immersing the sensor in the running buffer for another 900 seconds. In parallel, one sensor was selected as a reference, in which all loading, association, and dissociation steps were performed in the running buffer. […] The sensorgrams were analyzed by Fortebio data analysis software version 8.2 (ForteBio; Fremont, CA). First, the signals were subtracted from the negative control experiment, and compared to the baselines. The kinetic parameters were obtained by entirely fitting these specific sensorgrams with different antigen concentrations to the binding Model: 1:1.

Results on one molecule are retold here after patent US20240317874A1 (HIFIBIO HK, published 2024).

T6 sequence (P25942 21-277): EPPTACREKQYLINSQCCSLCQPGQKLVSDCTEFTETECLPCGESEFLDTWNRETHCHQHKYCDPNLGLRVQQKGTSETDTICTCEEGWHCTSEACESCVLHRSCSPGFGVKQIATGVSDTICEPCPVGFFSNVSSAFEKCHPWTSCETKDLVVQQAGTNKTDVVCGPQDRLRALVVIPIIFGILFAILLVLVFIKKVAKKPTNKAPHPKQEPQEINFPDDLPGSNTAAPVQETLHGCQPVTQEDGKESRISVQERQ

B1: anti-OX40 antibody HFB10-1E1hG1 (antibody, human IgG1, kappa, V domains shown)
VH: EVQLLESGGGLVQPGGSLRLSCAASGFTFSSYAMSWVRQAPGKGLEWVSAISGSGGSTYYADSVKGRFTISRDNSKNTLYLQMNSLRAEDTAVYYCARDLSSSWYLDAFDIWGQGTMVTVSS
VL: DIQMTQSPSSVSASVGDRVTITCRASQGISSWLAWYQQKPGKAPKLLIYAASSLQSGVPSRFSGSGSGTDFTLTISSLQPEDFATYYCQQANSFPLTFGGGTKLEIKR
notes: also called HFB301001
For the molecule B1, the binding result in assay [1] and in [11] was “no binding (tested: 100 nM)” throughout. In addition, the EC50 in assay [2] was 2940 pM; in assay [3], 1360 pM; in assay [5], 170 pM; in assay [6] it was 2900 pM; in assay [7] it was 2000 pM; in assay [8], 90 pM. Also, the EC50 was 2020 pM in [9], 650 pM in [13] and 190 pM in [14]. Besides, the results for the Kd in assay [4] and in assay [15] were 4400 pM and 4500 pM, respectively. Also, the koff in assay [4] and in [15] was 0.00043 s⁻¹ in each case. Also, the kon in assay [4] and in assay [15] was 97000 M⁻¹ s⁻¹ in each case. Further, the “EC50 (read off the curve)” value in assay [10] is ~200 pM. The “CD16 signaling in CD16-NF-AT-Luc reporter Jurkat cells, EC50 (nM), E:T 1:1” value in assay [12] was determined as 1.2 nM. The “CD16 signaling in CD16-NF-AT-Luc reporter Jurkat cells, EC50 (nM), E:T 3:1” value in [12] is 0.7 nM. The “CD16 signaling in CD16-NF-AT-Luc reporter Jurkat cells, EC50 (nM), E:T 6:1” value in assay [12] is 0.5 nM. The “CD16 signaling in CD16-NF-AT-Luc reporter Jurkat cells, EC50 (nM), E:T 12:1” value in assay [12] worked out at 0.3 nM.

What is called EC50 is the concentration that produces a half-maximal response. In general, Kd refers to the concentration at which binding is half-saturated. What is called koff is a measure of how fast the partners let go of each other. As usually defined, the kon is the second-order rate constant of association. As usually defined, the EC50 (read off the curve) is the concentration at which the effect is half-maximal.
